This experiment has as its target integrin αIIbβ3 on platelets of healthy donors (UniProt P08514). In words: cell-based or functional assay.

Substance “^39SRAGK-^46RIPRGDMP-^66RYH (Rho wild-type) (from UniProt P30403 408-475) (ligand)” yielded an IC50, Platelet Aggregation of 83.2 nM.

The values above are taken from patent publication US20200010516A1.
